Laboratory results as given in article PMC9482650, “Quantitative fragmentomics allow affinity mapping of interactomes” (Nature Communications, 2022).

Columns and labels:
Experiment in all cases: holdup assay
Set-up in all cases: key: below the threshold = too weak to quantify, mostly under pKd 3.1 to 4
Settings in all cases: plain residues with an end cap or a label only (N-terminal biotin on a linker: ado-ado)
[1] = target: T1, DFNB31_1, Q9P202
T1 sequence (Q9P202 135-233, limits assumed, looked up): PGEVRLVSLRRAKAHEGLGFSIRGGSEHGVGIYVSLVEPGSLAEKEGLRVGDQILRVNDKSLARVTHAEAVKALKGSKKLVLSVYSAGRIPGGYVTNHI

[2] = target: Inadl_5, Q8NI35
Sequence of Inadl_5, Q8NI35 (Q8NI35 673-780): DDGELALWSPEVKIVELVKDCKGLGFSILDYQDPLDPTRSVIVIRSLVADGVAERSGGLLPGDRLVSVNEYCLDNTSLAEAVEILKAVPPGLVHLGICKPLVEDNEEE

[3] = target: HTRA2, O43464
Sequence of HTRA2, O43464 (O43464 355-458): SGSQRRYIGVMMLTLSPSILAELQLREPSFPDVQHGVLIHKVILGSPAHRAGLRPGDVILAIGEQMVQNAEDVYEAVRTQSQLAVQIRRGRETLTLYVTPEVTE

[4] = target: T2, NHERF3_3, Q5T2W1
T2 sequence (Q5T2W1 238-333, limits assumed, looked up): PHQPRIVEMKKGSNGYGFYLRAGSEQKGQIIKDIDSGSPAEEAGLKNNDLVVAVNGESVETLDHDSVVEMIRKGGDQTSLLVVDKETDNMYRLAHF

[5] = target: FRMPD4, Q14CM0
Sequence of FRMPD4, Q14CM0 (Q14CM0 67-160): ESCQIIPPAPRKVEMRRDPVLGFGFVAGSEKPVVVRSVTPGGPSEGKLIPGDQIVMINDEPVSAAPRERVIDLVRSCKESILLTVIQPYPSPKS

[6] = target: T3, APBA1_1, Q02410
T3 sequence (Q02410 651-752, limits assumed, looked up): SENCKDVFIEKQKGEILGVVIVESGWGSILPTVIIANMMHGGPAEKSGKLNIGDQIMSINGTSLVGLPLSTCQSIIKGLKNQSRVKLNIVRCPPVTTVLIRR

[7] = target: MAGI2_2, Q86UL8
Sequence of MAGI2_2, Q86UL8 (Q86UL8 410-522): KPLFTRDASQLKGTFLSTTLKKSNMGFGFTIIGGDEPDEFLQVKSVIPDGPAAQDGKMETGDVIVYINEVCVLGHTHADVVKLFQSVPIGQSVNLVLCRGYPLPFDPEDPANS

[8] = target: T4, APBA2_1, Q99767
T4 sequence (Q99767 563-664, limits assumed, looked up): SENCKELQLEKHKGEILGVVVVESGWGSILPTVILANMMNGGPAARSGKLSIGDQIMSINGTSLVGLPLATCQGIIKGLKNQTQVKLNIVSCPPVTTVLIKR

[9] = target: DLG2_3, Q15700
[10] = target: T5, FRMPD1, Q5SYB0
T5 sequence (Q5SYB0 52-145, limits assumed, looked up): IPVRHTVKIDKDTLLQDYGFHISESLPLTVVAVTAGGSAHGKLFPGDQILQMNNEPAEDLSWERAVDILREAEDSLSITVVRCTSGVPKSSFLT

[11] = target: T6, NHERF3_4, Q5T2W1
T6 sequence (Q5T2W1 373-468, limits assumed, looked up): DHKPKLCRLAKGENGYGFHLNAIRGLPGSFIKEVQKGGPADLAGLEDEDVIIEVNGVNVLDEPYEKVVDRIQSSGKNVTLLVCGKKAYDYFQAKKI

[12] = target: T7, PTPN13_1, Q12923
T7 sequence (Q12923 1088-1188, limits assumed, looked up): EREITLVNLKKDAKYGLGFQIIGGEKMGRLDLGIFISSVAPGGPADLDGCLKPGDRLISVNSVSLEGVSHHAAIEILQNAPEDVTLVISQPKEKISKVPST

[13] = target: GRIP2_7, Q9C0E4
Sequence of GRIP2_7, Q9C0E4 (Q9C0E4 934-1023): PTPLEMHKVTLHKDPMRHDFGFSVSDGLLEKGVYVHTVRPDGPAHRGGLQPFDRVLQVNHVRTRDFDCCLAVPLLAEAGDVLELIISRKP

[14] = target: FRMPD3, Q5JV73
Sequence of FRMPD3, Q5JV73 (Q5JV73 12-100): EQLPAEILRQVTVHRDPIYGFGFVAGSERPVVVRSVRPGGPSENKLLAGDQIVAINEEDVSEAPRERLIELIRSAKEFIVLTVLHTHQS

[15] = target: IL16_4, Q14005
Sequence of IL16_4, Q14005 (Q14005 1229-1329): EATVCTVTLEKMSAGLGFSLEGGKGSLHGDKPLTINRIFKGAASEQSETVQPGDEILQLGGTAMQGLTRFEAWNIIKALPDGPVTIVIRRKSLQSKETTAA

[16] = target: DLG1_3, Q12959
[17] = target: Inadl_2, Q8NI35
Sequence of Inadl_2, Q8NI35 (Q8NI35 238-335): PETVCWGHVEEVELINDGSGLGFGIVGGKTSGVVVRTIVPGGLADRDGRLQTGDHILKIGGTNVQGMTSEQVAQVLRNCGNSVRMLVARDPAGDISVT

[18] = target: T8, APBA3_1, O96018
T8 sequence (O96018 389-490, limits assumed, looked up): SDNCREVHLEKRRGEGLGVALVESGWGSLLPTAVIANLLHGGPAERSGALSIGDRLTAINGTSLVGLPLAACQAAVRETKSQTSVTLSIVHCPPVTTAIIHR

[19] = target: DLG1_2, Q12959
[20] = target: T9, NHERF3_1, Q5T2W1
T9 sequence (Q5T2W1 4-100, limits assumed, looked up): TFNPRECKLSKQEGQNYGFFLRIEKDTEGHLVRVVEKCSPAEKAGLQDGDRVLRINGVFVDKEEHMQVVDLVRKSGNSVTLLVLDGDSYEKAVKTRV

[21] = target: DLG1_1, Q12959
[22] = target: MAGI2_3, Q86UL8
Sequence of MAGI2_3, Q86UL8 (Q86UL8 600-682): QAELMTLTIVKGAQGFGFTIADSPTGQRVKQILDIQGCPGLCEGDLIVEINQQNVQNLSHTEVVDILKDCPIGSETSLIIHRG

[23] = target: T10, LRRC7, Q96NW7
T10 sequence (Q96NW7 1440-1537, limits assumed, looked up): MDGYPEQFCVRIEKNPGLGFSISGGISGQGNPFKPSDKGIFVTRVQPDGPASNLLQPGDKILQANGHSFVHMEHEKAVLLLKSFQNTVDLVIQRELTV

[24] = target: GRID2IP_1, A4D2P6
Sequence of GRID2IP_1, A4D2P6 (A4D2P6 1-87): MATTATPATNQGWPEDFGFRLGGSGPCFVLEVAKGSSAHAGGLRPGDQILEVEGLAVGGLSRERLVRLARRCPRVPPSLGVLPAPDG

[25] = target: T11, GRIP1_7, Q9Y3R0
T11 sequence (Q9Y3R0 999-1096, limits assumed, looked up): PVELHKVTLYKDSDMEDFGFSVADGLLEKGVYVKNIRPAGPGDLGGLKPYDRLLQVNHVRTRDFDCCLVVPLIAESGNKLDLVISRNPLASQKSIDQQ

[26] = target: T12, APBA1_2, Q02410
T12 sequence (Q02410 742-832, limits assumed, looked up): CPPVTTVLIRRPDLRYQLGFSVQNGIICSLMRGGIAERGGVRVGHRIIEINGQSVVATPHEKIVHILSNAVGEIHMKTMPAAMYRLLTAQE

B1: GRIN2A, Q12879 (peptide)
chain: KKMPSIESDV
- pKd [1]: below the threshold
- pKd [2]: below the threshold
- pKd [3]: below the threshold
- pKd [4]: below the threshold
- pKd [5]: below the threshold
- pKd [6]: below the threshold
- pKd [7]: 4.05
- pKd [8]: below the threshold
- pKd [9]: 3.74
- pKd [10]: below the threshold
- pKd [11]: below the threshold
- pKd [12]: below the threshold
- pKd [13]: below the threshold
- pKd [14]: below the threshold
- pKd [15]: below the threshold
- pKd [16]: below the threshold
- pKd [17]: below the threshold
- pKd [18]: below the threshold
- pKd [19]: 5.44
- pKd [20]: below the threshold
- pKd [21]: 4.75
- pKd [22]: below the threshold
- pKd [23]: 3.91
- pKd [24]: below the threshold
- pKd [25]: below the threshold
- pKd [26]: below the threshold

B2: CLDN14, O95500 (peptide)
chain: HSGYRLNDYV
- pKd [1]: below the threshold
- pKd [2]: 3.48
- pKd [3]: 3.74
- pKd [4]: below the threshold
- pKd [5]: 3.58
- pKd [6]: below the threshold
- pKd [7]: below the threshold
- pKd [8]: below the threshold
- pKd [9]: below the threshold
- pKd [10]: below the threshold
- pKd [11]: below the threshold
- pKd [12]: below the threshold
- pKd [13]: below the threshold
- pKd [14]: below the threshold
- pKd [15]: below the threshold
- pKd [16]: below the threshold
- pKd [17]: below the threshold
- pKd [18]: below the threshold
- pKd [19]: 3.77
- pKd [20]: 4.59
- pKd [21]: below the threshold
- pKd [22]: below the threshold
- pKd [23]: below the threshold
- pKd [24]: below the threshold
- pKd [25]: below the threshold
- pKd [26]: 3.84
